Data: article PMC2712671

Biological target: His6-tagged MogR_(1-162) (Listeria monocytogenes) (UniProt P0DJO8)
Test: crystal structure

His6-tagged MogR_(1-162) (from UniProt P0DJO8 1-162) (domain or fragment)
stoichiometry N: 2
